Measurements from doi:10.1101/596536.

Columns and labels:
[1] = target: TcdA1 from Photorhabdus luminescens (Pl-TcdA1) (P. luminescens) (UniProt Q9RN43); test: cryo-EM structure
[2] = target: TcdB2-TccC3 from Photorhabdus luminescens (Pl-TcdB2-TccC3) (P. luminescens) (UniProt Q8GF99); test: BLI
[3] = target: TcdA4 from Morganella morganii (Mm-TcdA4) (M. morganii); test: cryo-EM structure
[4] = target: TcdA4 from Photorhabdus luminescens (Pl-TcdA4) (P. luminescens) (UniProt Q8GF92); test: cryo-EM structure
[5] = target: XptA1 from Xenorhabdus nematophila (Xn-XptA1) (X. nematophila); test: cryo-EM structure

Row | Substance | stoichiometry N [1] | Kd [2] | stoichiometry N [3] | stoichiometry N [4] | stoichiometry N [5]
1 | TcdA1 from Photorhabdus luminescens (Pl-TcdA1), Q9RN43 1-2516 | 5 | 0.63 nM | – | – | –
2 | TcdA4 from Morganella morganii (Mm-TcdA4) (natural protein) | – | 11.3 nM | 5 | – | –
3 | TcdA4 from Photorhabdus luminescens (Pl-TcdA4), Q8GF92 1-2381 | – | – | – | 5 | –
4 | XptA1 from Xenorhabdus nematophila (Xn-XptA1) (natural protein) | – | 1.99 nM | – | – | 5
